# According to the supplement of paper PMC11246515:
# ± gives the standard deviation of the averaged measurements.
# Experiment: total protein half-life in vivo (active degradation + dilution); higher = more stable protein
# [1] = E. coli NCM3722 delta-clpP delta-lon delta-hslV, growth: N-lim chemostat, doubling time 6 h
# [2] = E. coli NCM3722 delta-clpP, growth: N-lim chemostat, doubling time 6 h
# [3] = E. coli NCM3722 delta-hslV, growth: N-lim chemostat, doubling time 6 h
# [4] = E. coli NCM3722 delta-lon, growth: N-lim chemostat, doubling time 6 h
# [5] = E. coli NCM3722 delta-smpB, growth: N-lim chemostat, doubling time 6 h
# [6] = wild type E. coli NCM3722, growth: C-lim chemostat, doubling time 12 h
# [7] = wild type E. coli NCM3722, growth: N-lim chemostat, doubling time 6 h
# [8] = wild type E. coli NCM3722, growth: N-lim chemostat, doubling time 12 h
# [9] = wild type E. coli NCM3722, growth: P-lim chemostat, doubling time 6 h
# [10] = wild type E. coli NCM3722, growth: P-lim chemostat, doubling time 12 h
# [11] = wild type E. coli NCM3722, growth: C-lim chemostat, doubling time 3 h
# [12] = wild type E. coli NCM3722, growth: C-lim chemostat, doubling time 6 h
Sequence,total protein half-life in vivo [1] [h],total protein half-life in vivo [2] [h],total protein half-life in vivo [3] [h],total protein half-life in vivo [4] [h],total protein half-life in vivo [5] [h],total protein half-life in vivo [6] [h],total protein half-life in vivo [7] [h],total protein half-life in vivo [8] [h],total protein half-life in vivo [9] [h],total protein half-life in vivo [10] [h],total protein half-life in vivo [11] [h],total protein half-life in vivo [12] [h]
MNKDEAGGNWKQFKGKVKEQWGKLTDDDMTIIEGKRDQLVGKIQERYGYQKDQAEKEVVDWETRNEYRW,6.99 ± 1.3,4.33 ± 0.086,4.42,6.177 ± 0.038,3.64 ± 0.25,11 ± 3.5,3.59 ± 0.14,6.53 ± 1.5,3.72 ± 0.58,6.92 ± 0.27,,
MKLQLVAVGTKMPDWVQTGFTEYLRRFPKDMPFELIEIPAGKRGKNADIKRILDKEGEQMLAAAGKNRIVTLDIPGKPWDTPQLAAELERWKLDGRDVSLLIGGPEGLSPACKAAAEQSWSLSALTLPHPLVRVLVAESLYRAWSITTNHPYHRE [P0A8I8],5.401 ± 0.053,3.23 ± 0.13,5.99 ± 1.1,6.18 ± 1.4,3.18 ± 0.43,9.34 ± 2,4.87 ± 0.21,8.26 ± 0.7,4.57 ± 0.29,9.29 ± 0.3,2.78 ± 0.13,4.96 ± 0.5
MFEPMELTNDAVIKVIGVGGGGGNAVEHMVRERIEGVEFFAVNTDAQALRKTAVGQTIQIGSGITKGLGAGANPEVGRNAADEDRDALRAALEGADMVFIAAGMGGGTGTGAAPVVAEVAKDLGILTVAVVTKPFNFEGKKRMAFAEQGITELSKHVDSLITIPNDKLLKVLGRGISLLDAFGAANDVLKGAVQGIAELITRPGLMNVDFADVRTVMSEMGYAMMGSGVASGEDRAEEAAEMAISSPLLEDIDLSGARGVLVNITAGFDLRLDEFETVGNTIRAFASDNATVVIGTSLDPDMNDELRVTVVATGIGMDKRPEITLVTNKQVQQPVMDRYQQHGMAPLTQEQKPVAKVVNDNAPQTAKEPDYLDIPAFLRKQAD [P0A9A6],5.406 ± 0.043,5.13 ± 0.67,1.86 ± 0.3,1.95 ± 0.19,1.95 ± 0.0047,2.7 ± 0.23,1.79 ± 0.093,2.79 ± 0.26,2.53 ± 0.23,4.37 ± 0.54,1.25 ± 0.079,1.97 ± 0.13
MNNIAPQSPVMRRLTLQDNPAIARVIRQVSAEYGLTADKGYTVADPNLDELYQVYSQPGHAYWVVEYEGEVVGGGGIAPLTGSESDICELQKMYFLPAIRGKGLAKKLALMAMEQAREMGFKRCYLETTAFLKEAIALYEHLGFEHIDYALGCTGHVDCEVRMLREL,4.53 ± 0.45,3.93 ± 0.64,3.54 ± 0.28,3.77 ± 0.61,3.89 ± 0.23,6.43 ± 0.74,4.37 ± 0.26,7.32 ± 0.57,5 ± 0.34,10.6 ± 2.3,2.95 ± 0.76,5.11 ± 0.59
MLVSSNVTMQFGSKPLFENISVKFGGGNRYGLIGANGSGKSTFMKILGGDLEPTLGNVSLDPNERIGKLRQDQFAFEEFTVLDTVIMGHKELWEVKQERDRIYALPEMSEEDGYKVADLEVKYGEMDGYSAEARAGELLLGVGIPVEQHYGPMSEVAPGWKLRVLLAQALFADPDILLLDEPTNNLDIDTIRWLEQVLNERDSTMIIISHDRHFLNMVCTHMADLDYGELRVYPGNYDEYMTAATQARERLLADNAKKKAQIAELQSFVSRFSANASKSRQATSRARQIDKIKLEEVKASSRQNPFIRFEQDKKLFRNALEVEGLTKGFDNGPLFKNLNLLLEVGEKLAVLGTNGVGKSTLLKTLVGDLQPDSGTVKWSENARIGYYAQDHEYEFENDLTVFEWMSQWKQEGDDEQAVRSILGRLLFSQDDIKKPAKVLSGGEKGRMLFGKLMMQKPNILIMDEPTNHLDMESIESLNMALELYQGTLIFVSHDREFVSSLATRILEITPERVIDFSGNYEDYLRSKGIE [P0A9U3],5.14 ± 0.66,4.36 ± 0.29,4.35 ± 0.22,4.4 ± 0.35,4.27 ± 0.19,10.1 ± 0.12,4.218 ± 0.03,6.54 ± 0.14,5.08 ± 0.85,8.98 ± 1.4,2.9 ± 0.28,5.571 ± 0.029
MVTHRQRYREKVSQMVSWGHWFALFNILLSLVIGSRYLFIADWPTTLAGRIYSYVSIIGHFSFLVFATYLLILFPLTFIVGSQRLMRFLSVILATAGMTLLLIDSEVFTRFHLHLNPIVWQLVINPDENEMARDWQLMFISVPVILLLELVFATWSWQKLRSLTRRRRFARPLAAFLFIAFIASHVVYIWADANFYRPITMQRANLPLSYPMTARRFLEKHGLLDAQEYQRRLIEQGNPDAVSVQYPLSELRYRDMGTGQNVLLITVDGLNYSRFEKQMPALAGFAEQNISFTRHMSSGNTTDNGIFGLFYGISPSYMDGILSTRTPAALITALNQQGYQLGLFSSDGFTSPLYRQALLSDFSMPSVRTQSDEQTATQWINWLGRYAQEDNRWFSWVSFNGTNIDDSNQQAFARKYSRAAGNVDDQINRVLNALRDSGKLDNTVVIITAGRGIPLSEEEETFDWSHGHLQVPLVIHWPGTPAQRINALTDHTDLMTTLMQRLLHVSTPASEYSQGQDLFNPQRRHYWVTAADNDTLAITTPKKTLVLNNNGKYRTYNLRGERVKDEKPQLSLLLQVLTDEKRFIAN [P0AD27],6.51 ± 0.23,,,5.92 ± 0.086,6.0496 ± 0.0024,12.8 ± 0.27,6.18 ± 0.89,12.9 ± 1.1,6.34 ± 0.1,11.8 ± 0.67,3.37 ± 0.44,5.62 ± 0.63
